Measured values published in patent US20200377593A1 (Innovent, published 2020).

T1: mouse CD47-Fc (mouse, UniProt Q61735 19-140, limits assumed)
T1 construct: not shown: Fc part; not described
T1 sequence (looked up): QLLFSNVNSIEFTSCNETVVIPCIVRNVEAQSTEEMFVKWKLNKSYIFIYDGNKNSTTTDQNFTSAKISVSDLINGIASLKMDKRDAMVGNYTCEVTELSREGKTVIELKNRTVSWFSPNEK


Assays:
mouse CD47-Fc [1] = biological target: T1, mouse CD47-Fc; test: BLI (ForteBio), antibody on AHQ tip, mouse CD47-Fc in solution 100 nM, bivalent
human CD47-Fc [2] = biological target: T2, human CD47-Fc (human, UniProt Q08722 19-139); test: BLI (ForteBio), human CD47-Fc on AHQ tip, Fab in solution 100 nM, monovalent
T2 construct: also called hCD47; not shown: Fc part

[3] = biological target: T3, cynomolgus monkey CD47-Fc (cynomolgus monkey, UniProt A0A2K5X523 19-139); test: BLI (ForteBio), antibody on AHQ tip, cynomolgus monkey CD47-Fc in solution 100 nM, bivalent
T3 construct: not shown: Fc part; not described

human CD47-Fc [4] = biological target: T2, human CD47-Fc; test: BLI (ForteBio), antibody on AHQ tip, human CD47-Fc in solution 100 nM, bivalent
[5] = biological target: T4, human CD47 overexpressed on CHO cells (human, UniProt Q08722 19-292); test: flow cytometry competition on CHO-hCD47 cells against 200 nM mouse Fc-labeled SIRPα
T4 construct: CHO cells transfected with pCHO1.0 carrying human CD47 cDNA (Sino Biological); also called hCD47; CHO-hCD47 cells

[6] = biological target: T4, human CD47 overexpressed on CHO cells; test: flow cytometry on CHO-hCD47 cells, PE anti-human IgG, MFI curve
mouse CD47-Fc [7] = biological target: T1, mouse CD47-Fc; test: BLI (ForteBio), antibody on AHQ tip, mouse CD47-Fc in solution, bivalent

Row | Binder | Kd (human CD47-Fc [2]) [nM] | Kd (human CD47-Fc [4]) [nM] | IC50 [5] [nM] | EC50 [6] [nM] | binding result (mouse CD47-Fc [7]) | other results
1 | Hu5F9 (antibody, V domains shown) VH: QVQLVQSGAEVKKPGASVKVSCKASGYTFTNYNMHWVRQAPGQRLEWMGTIYPGNDDTSYNQKFKDRVTITADTSASTAYMELSSLRSEDTAVYYCARGGYRAMDYWGQGTLVTVSS VL: DIVMTQSPLSLPVTPGEPASISCRSSQSIVYSNGNTYLGWYLQKPGQSPQLLIYKVSNRFSGVPDRFSGSGSGTDFTLKISRVEAEDVGVYYCFQGSHVPYTFGQGTKLEIKR |  |  |  |  |  | Kd (mouse CD47-Fc [1]): 12.7 nM
2 | ADI-29337 Fab fragment (Fab, V domains shown) VH: QVQLQESGPGLVKPSETLSLTCTVSGGSINHYYWSWIRQPPGKGLEWIGAIYYSGSTRYNPSLKSRVTISVDTSKNQFSLKLSSVTAADTAVYYCARGKSAFDPWGQGTLVTVSS VL: DIQMTQSPSSVSASVGDRVTITCRASQGISRWLAWYQQKPGKAPKLLIYAASSLQSGVPSRFSGSGSGTDFTLTISSLQPEDFATYYCQQADLHPPLTFGGGTKVEIKR | 2.2 |  |  |  |  | 
3 | ADI-29337 (antibody, human IgG1, kappa, V domains shown, Full-length IgG1 kappa expressed in yeast, purified by Protein A) VH: QVQLQESGPGLVKPSETLSLTCTVSGGSINHYYWSWIRQPPGKGLEWIGAIYYSGSTRYNPSLKSRVTISVDTSKNQFSLKLSSVTAADTAVYYCARGKSAFDPWGQGTLVTVSS VL: DIQMTQSPSSVSASVGDRVTITCRASQGISRWLAWYQQKPGKAPKLLIYAASSLQSGVPSRFSGSGSGTDFTLTISSLQPEDFATYYCQQADLHPPLTFGGGTKVEIKR |  | 0.404 |  |  |  | Kd [3]: 0.554 nM; Kd (mouse CD47-Fc [1]): 18.7 nM
4 | ADI-26660 (antibody, human IgG1, kappa, V domains shown, Full-length IgG1 kappa expressed in yeast, purified by Protein A) VH: QVQLQESGPGLVKPSETLSLTCTVSGGSISSYYWSWIRQPPGKGLEWIGSIYYSGSTNYNPSLKSRVTISVDTSKNQFSLKLSSVTAADTAVYYCARKQKHFDIWGQGTMVTVSS VL: DIQMTQSPSSVSASVGDRVTITCRASQGISSWLAWYQQKPGKAPKLLIYAASSLQSGVPSRFSGSGSGTDFTLTISSLQPEDFATYYCQQVNHHPWTFGGGTKVEIKR |  | 1.35 | 16.7 | 5.74 | no binding (tested: 100 nM) | 
5 | ADI-26660 Fab fragment (Fab, V domains shown, also called ADI-26660 (Fab form)) VH: QVQLQESGPGLVKPSETLSLTCTVSGGSISSYYWSWIRQPPGKGLEWIGSIYYSGSTNYNPSLKSRVTISVDTSKNQFSLKLSSVTAADTAVYYCARKQKHFDIWGQGTMVTVSS VL: DIQMTQSPSSVSASVGDRVTITCRASQGISSWLAWYQQKPGKAPKLLIYAASSLQSGVPSRFSGSGSGTDFTLTISSLQPEDFATYYCQQVNHHPWTFGGGTKVEIKR | 130 |  |  |  |  | 
6 | ADI-29342 Fab fragment (Fab, V domains shown) VH: QVQLQESGPGLVKPSETLSLTCTVSGGSIMHYYWSWIRQPPGKGLEWIGYIYYSGSTNYNPSLKSRVTISVDTSKNQFSLKLSSVTAADTAVYYCARGKTGSAAWGQGTLVTVSS VL: DIQMTQSPSSVSASVGDRVTITCRASQGISRWLAWYQQKPGKAPKLLIYAASSLQSGVPSRFSGSGSGTDFTLTISSLQPEDFATYYCQQTVSFPITFGGGTKVEIKR | 11.7 |  |  |  |  | 
7 | ADI-26655 (antibody, human IgG1, kappa, V domains shown, Full-length IgG1 kappa expressed in yeast, purified by Protein A) VH: QVQLQESGPGLVKPSETLSLTCTVSGGSISSYYWSWIRQPPGKGLEWIGYIYYSGSTTYNPSLKSRVTISVDTSKNQFSLKLSSVTAADTAVYYCARKKRFFDLWGQGTTVTVSS VL: not shown |  | 0.849 | 38.1 | 7.65 | no binding (tested: 100 nM) | 
8 | ADI-29342 (antibody, human IgG1, kappa, V domains shown, Full-length IgG1 kappa expressed in yeast, purified by Protein A) VH: QVQLQESGPGLVKPSETLSLTCTVSGGSIMHYYWSWIRQPPGKGLEWIGYIYYSGSTNYNPSLKSRVTISVDTSKNQFSLKLSSVTAADTAVYYCARGKTGSAAWGQGTLVTVSS VL: DIQMTQSPSSVSASVGDRVTITCRASQGISRWLAWYQQKPGKAPKLLIYAASSLQSGVPSRFSGSGSGTDFTLTISSLQPEDFATYYCQQTVSFPITFGGGTKVEIKR |  | 0.486 | 2.69 | 2.74 | no binding (tested: 100 nM) | 
9 | ADI-26655 Fab fragment (Fab, V domains shown, also called ADI-26655 (Fab form)) VH: QVQLQESGPGLVKPSETLSLTCTVSGGSISSYYWSWIRQPPGKGLEWIGYIYYSGSTTYNPSLKSRVTISVDTSKNQFSLKLSSVTAADTAVYYCARKKRFFDLWGQGTTVTVSS VL: not shown | 46.3 |  |  |  |  | 
10 | ADI-29338 (antibody, human IgG1, kappa, V domains shown, Full-length IgG1 kappa expressed in yeast, purified by Protein A) VH: QVQLQESGPGLVKPSETLSLTCTVSGGSISSYYWSWIRQPPGKGLEWIGTIYYSGSTRYNPSLKSRVTISVDTSKNQFSLKLSSVTAADTAVYYCARGKSAFDPWGQGTLVTVSS VL: DIQMTQSPSSVSASVGDRVTITCRASQGISRWLAWYQQKPGKAPKLLIYAASSLQSGVPSRFSGSGSGTDFTLTISSLQPEDFATYYCQQADLHPPLTFGGGTKVEIKR |  |  | 3.14 | 1.57 |  | 
11 | ADI-29350 (antibody, human IgG1, kappa, V domains shown, Full-length IgG1 kappa expressed in yeast, purified by Protein A) VH: QVQLQESGPGLVKPSETLSLTCTVSGGSIEHYYWSWIRQPPGKGLEWIGYIYYSGFTEYNPSLKSRVTISVDTSKNQFSLKLSSVTAADTAVYYCARKKRFFDLWGQGTTVTVSS VL: not shown |  | 0.451 | 10.5 | 4.42 | no binding (tested: 100 nM) | 
12 | ADI-29345 Fab fragment (Fab, V domains shown) VH: QVQLQESGPGLVKPSETLSLTCTVSGGSISHYYWSWIRQPPGKGLEWIGYIYYSGVTTYNPSLKSRVTISVDTSKNQFSLKLSSVTAADTAVYYCARGKTGSTAWGQGTLVTVSS VL: DIQMTQSPSSVSASVGDRVTITCRASQGISRWLAWYQQKPGKAPKLLIYAASSLQSGVPSRFSGSGSGTDFTLTISSLQPEDFATYYCQQTVSFPITFGGGTKVEIKR | 2.89 |  |  |  |  | 
13 | ADI-29347 Fab fragment (Fab, V domains shown, also called ADI-29347 (Fab form)) VH: QVQLQESGPGLVKPSETLSLTCTVSGGSIANYYWSWIRQPPGKGLEWIGYTYFSGSTNYNPSLKSRVTISVDTSKNQFSLKLSSVTAADTAVYYCARGKTGSAAWGQGTLVTVSS VL: DIQMTQSPSSVSASVGDRVTITCRASQGISRWLAWYQQKPGKAPKLLIYAASSLQSGVPSRFSGSGSGTDFTLTISSLQPEDFATYYCQQTVSFPITFGGGTKVEIKR | 11.3 |  |  |  |  | 
14 | ADI-29350 Fab fragment (Fab, V domains shown, also called ADI-29350 (Fab form)) VH: QVQLQESGPGLVKPSETLSLTCTVSGGSIEHYYWSWIRQPPGKGLEWIGYIYYSGFTEYNPSLKSRVTISVDTSKNQFSLKLSSVTAADTAVYYCARKKRFFDLWGQGTTVTVSS VL: not shown | 5.04 |  |  |  |  | 
15 | ADI-29347 (antibody, human IgG1, kappa, V domains shown, Full-length IgG1 kappa expressed in yeast, purified by Protein A) VH: QVQLQESGPGLVKPSETLSLTCTVSGGSIANYYWSWIRQPPGKGLEWIGYTYFSGSTNYNPSLKSRVTISVDTSKNQFSLKLSSVTAADTAVYYCARGKTGSAAWGQGTLVTVSS VL: DIQMTQSPSSVSASVGDRVTITCRASQGISRWLAWYQQKPGKAPKLLIYAASSLQSGVPSRFSGSGSGTDFTLTISSLQPEDFATYYCQQTVSFPITFGGGTKVEIKR |  | 0.71 | 2.16 | 1.81 | no binding (tested: 100 nM) | Kd [3]: 0.562 nM
16 | ADI-29345 (antibody, human IgG1, kappa, V domains shown, Full-length IgG1 kappa expressed in yeast, purified by Protein A) VH: QVQLQESGPGLVKPSETLSLTCTVSGGSISHYYWSWIRQPPGKGLEWIGYIYYSGVTTYNPSLKSRVTISVDTSKNQFSLKLSSVTAADTAVYYCARGKTGSTAWGQGTLVTVSS VL: DIQMTQSPSSVSASVGDRVTITCRASQGISRWLAWYQQKPGKAPKLLIYAASSLQSGVPSRFSGSGSGTDFTLTISSLQPEDFATYYCQQTVSFPITFGGGTKVEIKR |  | 0.403 | 2.75 | 1.5 | no binding (tested: 100 nM) | 
